These are literature values, as cited in paper PMC2879464.

Data set [1] addresses cortactin (Homo sapiens) (UniProt Q14247).
The target is the same in data set [2]. This is another data set of the same source.

Like-named read-outs stand apart in the source and are kept apart here.

Chain of UniProt Q14247 (Q14247 whole entry): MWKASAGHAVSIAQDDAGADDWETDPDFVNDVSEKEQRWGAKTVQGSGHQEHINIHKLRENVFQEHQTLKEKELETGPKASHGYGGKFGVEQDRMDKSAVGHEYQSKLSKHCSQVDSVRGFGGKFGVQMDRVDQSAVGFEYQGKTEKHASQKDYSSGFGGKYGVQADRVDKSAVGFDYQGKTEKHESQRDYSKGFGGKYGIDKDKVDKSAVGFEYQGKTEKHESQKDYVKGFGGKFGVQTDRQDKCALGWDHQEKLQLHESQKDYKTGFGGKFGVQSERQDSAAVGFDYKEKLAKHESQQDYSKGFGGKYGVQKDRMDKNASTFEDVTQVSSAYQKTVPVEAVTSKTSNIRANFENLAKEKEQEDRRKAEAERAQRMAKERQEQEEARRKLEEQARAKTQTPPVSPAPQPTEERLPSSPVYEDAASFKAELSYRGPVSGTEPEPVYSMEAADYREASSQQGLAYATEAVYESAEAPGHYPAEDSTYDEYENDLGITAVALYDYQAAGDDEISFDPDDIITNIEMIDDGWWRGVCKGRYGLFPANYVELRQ

For nmMLCK1 (from UniProt Q15746), in data set [1], the Kd is 1 µM.

nmMLCK2 (from UniProt Q15746): the Kd in data set [2] was 0.25 µM.

The Kd is the free concentration of one partner at which half of the binding sites on the other are occupied at equilibrium, for simple one-to-one binding.
